Experimental data reported in patent publication US20230416371A1 (Chugai, published 2023).

Experiments:
[1] = target: T1, human FcγRIIb extracellular domain (human, UniProt P31994 43-217); assay: SPR Biacore 8K+; KD of G1d divided by KD of this antibody
T1 construct: extracellular domain; also called hFcγRIIb
T1 sequence (looked up): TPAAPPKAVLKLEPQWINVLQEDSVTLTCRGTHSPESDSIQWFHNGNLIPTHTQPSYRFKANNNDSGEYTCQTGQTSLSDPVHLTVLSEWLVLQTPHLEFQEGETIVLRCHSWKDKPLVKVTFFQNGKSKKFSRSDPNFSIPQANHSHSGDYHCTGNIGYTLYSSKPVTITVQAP
Experimental: (§1) The extracellular domains of FcγRs were produced by the method described in WO2014104165. The interaction between the produced antibodies and human FcγRs was analyzed using Biacore 8K+by the method below. For the running buffer, 50 mM Na-Phosphate, 150 mM NaCl, and 0.05% Tween20 (pH 7.4) was used, and measurement was performed at 25° C. The sensor chip used was a Series S SA chip (GE Healthcare) onto which CaptureSelect Human Fab-kappa Kinetics Biotin Conjugate (Thermo Fisher Scientific) was immobilized. An antibody of interest was captured onto this chip, and each FcγR diluted with the running buffer was allowed to interact with it. The chip was regenerated using 10 mM Glycine-HCl (pH 1.5), and repeatedly used to capture antibodies and perform measurement. The dissociation constants KD (mol/L) of each antibody for FcγRs were calculated using Biacore Insight Evaluation Software, with a steady state affinity model for the dissociation constant for FcγRIIb and a 1:1 Langmuir binding model for the dissociation constants for the other FcγRs (Table 2).

[2] = target: T2, human FcγRIIa H (allotype H131) extracellular domain (human, UniProt P12318 34-217); assay: as above
T2 construct: extracellular domain; also called hFcγRIIaH
T2 sequence (looked up): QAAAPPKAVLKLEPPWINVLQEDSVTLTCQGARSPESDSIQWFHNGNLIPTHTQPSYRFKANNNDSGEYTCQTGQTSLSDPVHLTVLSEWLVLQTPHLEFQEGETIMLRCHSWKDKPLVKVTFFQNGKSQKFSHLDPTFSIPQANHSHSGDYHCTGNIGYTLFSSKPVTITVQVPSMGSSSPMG
Experimental: as §1

[3] = target: T1, human FcγRIIb extracellular domain; assay: SPR Biacore 8K+, 25 C, antibody captured, FcγR as analyte, steady state affinity model
Experimental: as §1

[4] = target: T3, human FcγRIIIa V (allotype V158) extracellular domain (human, UniProt P08637 17-208); assay: SPR Biacore 8K+, 25 C, antibody captured, FcγR as analyte, 1:1 Langmuir model
T3 construct: extracellular domain; also called hFcγRIIIaV
T3 sequence (P08637 17-208 F176V): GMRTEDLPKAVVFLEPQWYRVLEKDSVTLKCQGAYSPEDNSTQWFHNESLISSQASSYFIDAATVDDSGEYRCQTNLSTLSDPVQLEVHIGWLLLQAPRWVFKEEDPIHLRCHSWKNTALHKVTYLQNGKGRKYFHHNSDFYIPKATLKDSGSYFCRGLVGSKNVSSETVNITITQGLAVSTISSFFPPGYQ
Experimental: as §1

[5] = target: hFcγRIIIaV on hFcγRIIIaV-expressing Jurkat cells (human, UniProt P08637 17-254); assay: cell-based or functional assay
Chain of hFcγRIIIaV on hFcγRIIIaV-expressing Jurkat cells (P08637 17-254, form in doubt): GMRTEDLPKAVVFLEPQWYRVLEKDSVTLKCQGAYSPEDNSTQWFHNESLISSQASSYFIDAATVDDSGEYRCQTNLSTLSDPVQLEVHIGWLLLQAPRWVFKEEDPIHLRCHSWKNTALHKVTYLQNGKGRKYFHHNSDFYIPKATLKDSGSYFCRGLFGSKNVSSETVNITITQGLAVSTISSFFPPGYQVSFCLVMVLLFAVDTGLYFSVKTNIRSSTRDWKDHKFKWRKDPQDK

[6] = target: T4, human FcγRIIIa F (allotype F158) extracellular domain (human, UniProt P08637 17-208); assay: SPR Biacore 8K+; KD for FcγRIIb divided by KD for this FcγR
T4 construct: extracellular domain; also called hFcγRIIIaF
T4 sequence (P08637 17-208): as the sequence (P08637 17-208 F176V) above, with V160F counted along it
Experimental: as §1

[7] = target: T3, human FcγRIIIa V (allotype V158) …; assay: as above
Experimental: as §1

Row | Binder | Relative value to KD between G1d and hFcγRs [1] [times] | Relative value to KD between G1d and hFcγRs [2] [times] | Kd [3] [µM] | Kd [4] [µM] | EC50 value of hFcγRIIIaV-mediated reporter gene induction activity [5] [ng/mL] | A/I ratio (KD for FcγRIIb divided by KD for each FcγR) [6] | A/I ratio (KD for FcγRIIb divided by KD for each FcγR) [7]
1 | EGL-afucosyl (H240-G1d/L73-k_glycomab) (antibody, afucosylated (fucose-deficient sugar chain) ; Afucosylated (fucose-deficient) N-glycan at Asn297 (EU) of the heavy chain; the letters cannot carry it., Same heavy chain as EGL-G1d, produced in cells that give fucose-deficient antibodies; also called afucosylated antibody) heavy: not shown VL: DIQMTQSPSSLSASVGDRVTITCRASQDIHKYIAWYQQKPGQAPRLLIQYTSTLQPGVPSRFSGSGSGTDYTFTISSLQPEDIATYYCLQYEQLRTFGGGTKVEIK | 1.8 | 1.1 | 5.85 | 0.018 | 5.16 |  | 
2 | EGL-ART6 (H240-Kn462/L73-k0//H240-HI445/L73-k0) (antibody, human IgG1, kappa, Anti-human Epiregulin IgG1 with heterodimeric (knobs-into-holes) Fc variant) heavy 1: QDQLVQSGAEVKKPGASVKVSCKASGFNIKDTYIQWVRQAPGQGLEWMGRIDPLRKQTKYREKFEGRVTITADTSTNTAYMELSSLRSEDTAVYYCVRSGREFDYWGQGTLVTVSSASTKGPSVFPLAPSSKSTSGGTAALGCLVKDYFPEPVTVSWNSGALTSGVHTFPAVLQSSGLYSLSSVVTVPSSSLGTQTYICNVNHKPSNTKVDKKVEPKSCDKTHTCPPCPAPEFQWGPMVFLFPPKPKDVLMISRTPEVTCVVVDVSDEEPEVKFNWYVDGVEVHNAKTKPREEQYNATYRVVSVLPVLHQDWLNGKEYKCKVSNDALPAPIEKTISKAKGQPREPQVCTLPPSRDELTKNQVSLWCLVKGFYPSDIAVEWESNGQPENNYKTTPPVLDSDGSFFLYSKLTVDKSRWQQGNVFSCSVMHEALHNHYTQKSLSLSP heavy 2: QDQLVQSGAEVKKPGASVKVSCKASGFNIKDTYIQWVRQAPGQGLEWMGRIDPLRKQTKYREKFEGRVTITADTSTNTAYMELSSLRSEDTAVYYCVRSGREFDYWGQGTLVTVSSASTKGPSVFPLAPSSKSTSGGTAALGCLVKDYFPEPVTVSWNSGALTSGVHTFPAVLQSSGLYSLSSVVTVPSSSLGTQTYICNVNHKPSNTKVDKKVEPKSCDKTHTCPPCPAPELLAGPSVFLFPPKPKDVLMISRTPEVTCVVVDVSHEEPEVKFNWYVDGVEVHNAKTKPREEQYNATYRVVSVLPVLHQDWLNGKEYKCKVSNDALPKPDEETISKAKGQPREPQVYTLPPSRCELTKNQVSLSCAVKGFYPSDIAVEWESNGQPENNYKTTPPVLDSDGSFFLVSKLTVDKSRWQQGNVFSCSVMHEALHNHYTQKSLSLSP light: DIQMTQSPSSLSASVGDRVTITCRASQDIHKYIAWYQQKPGQAPRLLIQYTSTLQPGVPSRFSGSGSGTDYTFTISSLQPEDIATYYCLQYEQLRTFGGGTKVEIKRTVAAPSVFIFPPSDEQLKSGTASVVCLLNNFYPREAKVQWKVDNALQSGNSQESVTEQDSKDSTYSLSSTLTLSKADYEKHKVYACEVTHQGLSSPVTKSFNRGEC |  |  |  |  |  | 975 | 2030
